Reference: the supplement of paper PMC5998384

How the values were obtained:
HeLa Kyoto [1] = test: solubility in G1/S (NP-40 vs SDS abundance) (log2 ratio); higher = more soluble; conditions: cell cycle stage: G1/S
HeLa Kyoto [2] = test: thermal stability score vs G1/S (z-score of summed log2 fold changes over temperatures); higher = more thermally stable than in G1/S
HeLa Kyoto [3] = test: solubility change mitosis vs G1/S (difference of NP-40 vs SDS log2 ratios) (log2 ratio difference); higher = more soluble in mitosis
HeLa Kyoto [4] = test: melting temperature (median over replicates), in situ; higher = more thermally stable
[5] = cell cycle stage: early G1 (4.5 h after nocodazole release)
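For melting temperature (median over replicates), in situ in this document: HeLa Kyoto cells synchronized by double thymidine or nocodazole block, proteins quantified by TMT10plex mass spectrometry, three independent biological replicates.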
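For solubility change mitosis vs G1/S (difference of NP-40 vs SDS log2 ratios) in this document: synchronized HeLa Kyoto cells (double thymidine block for G1/S, nocodazole release for mitosis), protein amounts in NP-40 versus SDS lysates quantified by mass spectrometry, three biological replicates.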
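For solubility in G1/S (NP-40 vs SDS abundance) in this document: HeLa Kyoto cells arrested at G1/S by double thymidine block, proteins quantified by TMT10plex mass spectrometry in mild NP-40 versus SDS extracts, three biological replicates.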
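For thermal stability score vs G1/S (z-score of summed log2 fold changes over temperatures) in this document: synchronized HeLa Kyoto cells, proteins quantified by TMT10plex mass spectrometry, three biological replicates, mitosis taken 0.5 h after nocodazole release, G1/S directly after double thymidine block.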

Row | Substance | solubility in G1/S (log2) (HeLa Kyoto [1]) | thermal stability score (HeLa Kyoto [2]; [5]) | thermal stability score (HeLa Kyoto [2]; cell cycle stage: mitosis) | solubility change mitosis (log2) (HeLa Kyoto [3]) | melting temperature (HeLa Kyoto [4]; cell cycle stage: G1/S) | melting temperature (HeLa Kyoto [4]; cell cycle stage: mitosis)
1 | MRWGLRPRGPGAAALATARSLWGTPRLPCSPGWQGATKRLLVRSVSGASNHQPNSNSGRYRDTVLLPQTSFPMKLLGRQQPDTELEIQQKCGFSELYSWQRERKVKTEFCLHDGPPYANGDPHVGHALNKILKDIANRFHMMNGSKIHFVPGWDCHGLPIEIKVLSELGREAQNLSAMEIRKKARSFAKAAIEKQKSAFIRWGIMADWNNCYYTFDGKYEAKQLRTFYQMYDKGLVYRSYKPVFWSPSSRTALAEAELEYNPEHVSRSIYVKFPLLKPSPKLASLIDGSSPVSILVWTTQPWTIPANEAVCYMPESKYAVVKCSKSGDLYVLAADKVASVASTLETTFETISTLSGVDLENGTCSHPLIPDKASPLLPANHVTMAKGTGLVHTAPAHGMEDYGVASQHNLPMDCLVDEDGVFTDVAGPELQNKAVLEEGTDVVIKMLQTAKNLLKEEKLVHSYPYDWRTKKPVVIRASKQWFINITDIKTAAKELLKKVKFIPGSALNGMVEMMDRRPYWCISRQRVWGVPIPVFHHKTKDEYLINSQTTEHIVKLVEQHGSDIWWTLPPEQLLPKEVLSEVGGPDALEYVPGQDILDIWFDSGTSWSYVLPGPDQRADLYLEGKDQLGGWFQSSLLTSVAARKRAPYKTVIVHGFTLGEKGEKMSKSLGNVIHPDVVVNGGQDQSKEPPYGADVLRWWVADSNVFTEVAIGPSVLNAARDDISKLRNTLRFLLGNVADFNPETDSIPVNDMYVIDQYMLHLLQDLANKITELYKQYDFGKVVRLLRTFYTRELSNFYFSIIKDRLYCEKENDPKRRSCQTALVEILDVIVRSFAPILPHLAEEVFQHIPYIKEPKSVFRTGWISTSSIWKKPGLEEAVESACAMRDSFLGSIPGKNAAEYKVITVIEPGLLFEIIEMLQSEETSSTSQLNELMMASESTLLAQEPREMTADVIELKGKFLINLEGGDIREESSYKVIVMPTTKEKCPRCWKYTAESSDTLCPRCAEVVSGK [IARS2] | -0.0329 | -0.383 | -1.42 | -0.0958 | 54.9 °C | 54.9 °C
2 | MMIHGFQSSHRDFCFGPWKLTASKTHIMKSADVEKLADELHMPSLPEMMFGDNVLRIQHGSGFGIEFNATDALRCVNNYQGMLKVACAEEWQESRTEGEHSKEVIKPYDWTYTTDYKGTLLGESLKLKVVPTTDHIDTEKLKAREQIKFFEEVLLFEDELHDHGVSSLSVKIRVMPSSFFLLLRFFLRIDGVLIRMNDTRLYHEADKTYMLREYTSRESKISSLMHVPPSLFTEPNEISQYLPIKEAVCEKLIFPERIDPNPADSQKSTQVE [TIPRL] | 0.0228 | -0.544 | -1.01 | -0.0696 | 50.8 °C | 51.3 °C
3 | MKYILVTGGVISGIGKGIIASSIGTILKSCGLRVTAIKIDPYINIDAGTFSPYEHGEVFVLNDGGEVDLDLGNYERFLDINLYKDNNITTGKIYQHVINKERRGDYLGKTVQVVPHITDAVQEWVMNQAKVPVDGNKEEPQICVIELGGTIGDIEGMPFVEAFRQFQFKAKRENFCNIHVSLVPQLSATGEQKTKPTQNSVRALRGLGLSPDLIVCRSSTPIEMAVKEKISMFCHVNPEQVICIHDVSSTYRVPVLLEEQSIVKYFKERLHLPIGDSASNLLFKWRNMADRYERLQKICSIALVGKYTKLRDCYASVFKALEHSALAINHKLNLMYIDSIDLEKITETEDPVKFHEAWQKLCKADGILVPGGFGIRGTLGKLQAISWARTKKIPFLGVCLGMQLAVIEFARNCLNLKDADSTEFRPNAPVPLVIDMPEHNPGNLGGTMRLGIRRTVFKTENSILRKLYGDVPFIEERHRHRFEVNPNLIKQFEQNDLSFVGQDVDGDRMEIIELANHPYFVGVQFHPEFSSRPMKPSPPYLGLLLAATGNLNAYLQQGCKLSSSDRYSDASDDSFSEPRIAELEIS [CTPS2] | 0.0287 | -2.15 | -1.98 | -0.0719 | 57.1 °C | 57.2 °C
4 | MHSRGREIVVLLNPWSINEAVSSYCTYFIKQDSKSFGIMVSWKGIYFILTLFWGSFFGSIFMLSPFLPLMFVNPSWYRWINNRLVATWLTLPVALLETMFGVKVIITGDAFVPGERSVIIMNHRTRMDWMFLWNCLMRYSYLRLEKICLKASLKGVPGFGWAMQAAAYIFIHRKWKDDKSHFEDMIDYFCDIHEPLQLLIFPEGTDLTENSKSRSNAFAEKNGLQKYEYVLHPRTTGFTFVVDRLREGKNLDAVHDITVAYPHNIPQSEKHLLQGDFPREIHFHVHRYPIDTLPTSKEDLQLWCHKRWEEKEERLRSFYQGEKNFYFTGQSVIPPCKSELRVLVVKLLSILYWTLFSPAMCLLIYLYSLVKWYFIITIVIFVLQERIFGGLEIIELACYRLLHKQPHLNSKKNE [LCLAT1] | -0.201 | -2.01 | -2.82 | -0.165 | 55.1 °C | 54.7 °C
5 | MFPFGPHSPGGDGSAGAGAEEPTPHEGQAAATGPPSPLHPGADATHPPPPARSPRRPGAPSLSPAPRSGELGLPGAPESSTASAPGEPSPPSPPCRRPGPDCRAKSRGRHGLGAGLGGPGARLFGWLKERSLGRGLFVDPARDNFRTMTSLYGSIHPADSVYLSTRTHGAVFNLEYSPDGSVLTVACEQTEVLLFDPISSKHIKTLSEAHEDCVNNIRFLDNRLFATCSDDTTIALWDLRKLNTKVCTLHGHTSWVKNIEYDTNTRLLVTSGFDGNVIIWDTNRYTEDGCPHKKFFHTRFLMRMRLTPDCSKMLISTSSGYLLILHDLDLTKSLEVGSYPILRARRTTSSSDLTTSSSSSGPRVSGSPCHHSDSNSSEKHMSRASQREGVSPRNSLEVVTPEVLGESDHGNCITSLQLHPKGWATLLRCSSNSDDEECTCVYEFQEGAPVRPVSPRCSLRLTHYIEEANVGRGYIKELCFSPDGRMISSPHGYGIRLLGFDKQCSELVDCLPKEASPLRVIRSLYSHNDVVLTTKFSPTHCQIASGCLSGRVSLYQPKF [DCAF10] | -0.0366 | -2.74 | -3.62 | -0.0652 | 53.7 °C | 51.2 °C
6 | MADAWEEIRRLAADFQRAQFAEATQRLSERNCIEIVNKLIAQKQLEVVHTLDGKEYITPAQISKEMRDELHVRGGRVNIVDLQQVINVDLIHIENRIGDIIKSEKHVQLVLGQLIDENYLDRLAEEVNDKLQESGQVTISELCKTYDLPGNFLTQALTQRLGRIISGHIDLDNRGVIFTEAFVARHKARIRGLFSAITRPTAVNSLISKYGFQEQLLYSVLEELVNSGRLRGTVVGGRQDKAVFVPDIYSRTQSTWVDSFFRQNGYLEFDALSRLGIPDAVSYIKKRYKTTQLLFLKAACVGQGLVDQVEASVEEAISSGTWVDIAPLLPTSLSVEDAAILLQQVMRAFSKQASTVVFSDTVVVSEKFINDCTELFRELMHQKAEKEMKNNPVHLITEEDLKQISTLESVSTSKKDKKDERRRKATEGSGSMRGGGGGNAREYKIKKVKKKGRKDDDSDDESQSSHTGKKKPEISFMFQDEIEDFLRKHIQDAPEEFISELAEYLIKPLNKTYLEVVRSVFMSSTTSASGTGRKRTIKDLQEEVSNLYNNIRLFEKGMKFFADDTQAALTKHLLKSVCTDITNLIFNFLASDLMMAVDDPAAITSEIRKKILSKLSEETKVALTKLHNSLNEKSIEDFISCLDSAAEACDIMVKRGDKKRERQILFQHRQALAEQLKVTEDPALILHLTSVLLFQFSTHSMLHAPGRCVPQIIAFLNSKIPEDQHALLVKYQGLVVKQLVSQSKKTGQGDYPLNNELDKEQEDVASTTRKELQELSSSIKDLVLKSRKSSVTEE [UFL1] | -0.013 | 1.14 | 2.59 | -0.0952 | 50 °C | 49.8 °C
7 | MRGAMELEPELLLQEARENVEAAQSYRRELGHRLEGLREARRQIKESASQTRDVLKQHFNDLKGTLGKLLDERLVTLLQEVDTIEQETIKPLDDCQKLIEHGVNTAEDLVREGEIAMLGGVGEENEKLWSFTKKASHIQLDSLPEVPLLVDVPCLSAQLDDSILNIVKDHIFKHGTVASRPPVQIEELIEKPGGIIVRWCKVDDDFTAQDYRLQFRKCTSNHFEDVYVGSETEFIVLHIDPNVDYQFRVCARGDGRQEWSPWSVPQIGHSTLVPHEWTAGFEGYSLSSRRNIALRNDSESSGVLYSRAPTYFCGQTLTFRVETVGQPDRRDSIGVCAEKQDGYDSLQRDQAVCISTNGAVFVNGKEMTNQLPAVTSGSTVTFDIEAVTLGTTSNNEGGHFKLRVTISSNNREVVFDWLLDQSCGSLYFGCSFFYPGWKVLVF [CRLF3] | -0.117 | -0.0259 | -0.0234 | -0.13 | 50 °C | 49.7 °C
8 | MALASVLERPLPVNQRGFFGLGGRADLLDLGPGSLSDGLSLAAPGWGVPEEPGIEMLHGTTTLAFKFRHGVIVAADSRATAGAYIASQTVKKVIEINPYLLGTMAGGAADCSFWERLLARQCRIYELRNKERISVAAASKLLANMVYQYKGMGLSMGTMICGWDKRGPGLYYVDSEGNRISGATFSVGSGSVYAYGVMDRGYSYDLEVEQAYDLARRAIYQATYRDAYSGGAVNLYHVREDGWIRVSSDNVADLHEKYSGSTP [PSMB5] | -0.00915 | -2.01 | -3.9 | -0.142 | 63.3 °C | 61.5 °C
9 | ZNFX1 | -0.239 | -0.325 | 0.64 | -0.0887 | 50.3 °C | 49.5 °C
10 | MGCIKSKGKDSLSDDGVDLKTQPVRNTERTIYVRDPTSNKQQRPVPESQLLPGQRFQTKDPEEQGDIVVALYPYDGIHPDDLSFKKGEKMKVLEEHGEWWKAKSLLTKKEGFIPSNYVAKLNTLETEEWFFKDITRKDAERQLLAPGNSAGAFLIRESETLKGSFSLSVRDFDPVHGDVIKHYKIRSLDNGGYYISPRITFPCISDMIKHYQKQADGLCRRLEKACISPKPQKPWDKDAWEIPRESIKLVKRLGAGQFGEVWMGYYNNSTKVAVKTLKPGTMSVQAFLEEANLMKTLQHDKLVRLYAVVTREEPIYIITEYMAKGSLLDFLKSDEGGKVLLPKLIDFSAQIAEGMAYIERKNYIHRDLRAANVLVSESLMCKIADFGLARVIEDNEYTAREGAKFPIKWTAPEAINFGCFTIKSDVWSFGILLYEIVTYGKIPYPGRTNADVMTALSQGYRMPRVENCPDELYDIMKMCWKEKAEERPTFDYLQSVLDDFYTATEGQYQQQP [LYN] | -0.416 | 1.11 | 0.805 | -0.0796 | 51.1 °C | 50.7 °C
11 | MPPPSDIVKVAIEWPGANAQLLEIDQKRPLASIIKEVCDGWSLPNPEYYTLRYADGPQLYITEQTRSDIKNGTILQLAISPSRAARQLMERTQSSNMETRLDAMKELAKLSADVTFATEFINMDGIIVLTRLVESGTKLLSHYSEMLAFTLTAFLELMDHGIVSWDMVSITFIKQIAGYVSQPMVDVSILQRSLAILESMVLNSQSLYQKIAEEITVGQLISHLQVSNQEIQTYAIALINALFLKAPEDKRQDMANAFAQKHLRSIILNHVIRGNRPIKTEMAHQLYVLQVLTFNLLEERMMTKMDPNDQAQRDIIFELRRIAFDAESDPSNAPGSGTEKRKAMYTKDYKMLGFTNHINPAMDFTQTPPGMLALDNMLYLAKVHQDTYIRIVLENSSREDKHECPFGRSAIELTKMLCEILQVGELPNEGRNDYHPMFFTHDRAFEELFGICIQLLNKTWKEMRATAEDFNKVMQVVREQITRALPSKPNSLDQFKSKLRSLSYSEILRLRQSERMSQDDFQSPPIVELREKIQPEILELIKQQRLNRLCEGSSFRKIGNRRRQERFWYCRLALNHKVLHYGDLDDNPQGEVTFESLQEKIPVADIKAIVTGKDCPHMKEKSALKQNKEVLELAFSILYDPDETLNFIAPNKYEYCIWIDGLSALLGKDMSSELTKSDLDTLLSMEMKLRLLDLENIQIPEAPPPIPKEPSSYDFVYHYG [ELMO2] | 0.00667 | 0.0114 | 0.0809 | -0.134 | 49.5 °C | 49.5 °C
